Measured values as given in paper doi:10.1101/041756.
Read-outs that look alike come from different tables or passages of the source.

Assays:
[1] = biological target: microtubules (human (endogenous in HeLa)) (UniProt P68363)
[2] = biological target: microtubules (human (endogenous in HeLa)) (UniProt P68363); remark: listed apart in the source

UniProt P68363, sequence (P68363 whole entry): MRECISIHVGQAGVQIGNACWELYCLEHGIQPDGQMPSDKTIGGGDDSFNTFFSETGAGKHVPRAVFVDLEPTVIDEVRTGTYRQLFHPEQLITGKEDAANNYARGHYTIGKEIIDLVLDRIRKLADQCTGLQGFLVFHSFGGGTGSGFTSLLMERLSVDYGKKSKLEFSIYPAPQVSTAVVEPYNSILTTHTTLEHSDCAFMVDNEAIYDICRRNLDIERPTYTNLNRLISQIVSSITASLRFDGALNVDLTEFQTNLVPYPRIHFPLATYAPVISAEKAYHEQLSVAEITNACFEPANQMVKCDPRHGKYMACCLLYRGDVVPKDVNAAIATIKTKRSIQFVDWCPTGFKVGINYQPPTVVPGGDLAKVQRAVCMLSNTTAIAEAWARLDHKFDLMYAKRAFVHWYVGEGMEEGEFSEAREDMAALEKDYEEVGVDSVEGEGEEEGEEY

Row | FRAP in living reporter cells: mobile fraction [2] [%] | Substance | further results
1 | – | Conformational-Sensitive Tau sensor (ECFP-Tau-EYFP, full length Tau-D, 0N4R) (from UniProt P10636-6 1-383) | FRAP in living reporter cells: mobile fraction [1]: 73%; FRAP in living reporter cells: τ1 of the MTs-bound phase [1]: 30 s
2 | 57 | AT8mut-CST (S199A/S202A/T205A) | FRAP in living reporter cells: τ2 [2]: 46.8
3 | 86 | S422E-CST | –
4 | 85 | P301S-CST | –
5 | 84 | P301L-CST | FRAP in living reporter cells: diffusive fraction [2]: 38%
